Measured values as given in patent publication US20230340140A1 (INNATE PHARMA, published 2023).

Experiments:
[1] = molecular target: T1, Human C5aR (C5aR1) (human, UniProt P21730 1-350); assay: FACS titration on human neutrophils in vitro; FACS titration on human neutrophils in vitro, given in nM
T1 construct: Native receptor on human neutrophils/granulocytes (blood of patients or healthy volunteers); also called C5a receptor
T1 sequence: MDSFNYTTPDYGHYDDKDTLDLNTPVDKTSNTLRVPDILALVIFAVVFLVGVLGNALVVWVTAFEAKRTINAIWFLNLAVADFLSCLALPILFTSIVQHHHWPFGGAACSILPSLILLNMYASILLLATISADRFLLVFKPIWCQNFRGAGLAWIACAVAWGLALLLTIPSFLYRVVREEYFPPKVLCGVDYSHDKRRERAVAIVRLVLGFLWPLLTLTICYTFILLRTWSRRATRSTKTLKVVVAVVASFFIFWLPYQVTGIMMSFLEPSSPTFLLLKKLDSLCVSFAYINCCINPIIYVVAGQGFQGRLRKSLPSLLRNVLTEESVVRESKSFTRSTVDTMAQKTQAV

[2] = molecular target: T1, Human C5aR (C5aR1); assay: EC50 of C5aR saturation in the PD part of the PKPD model, derived from PK/receptor saturation data of the phase I trial; PD parameter of the PKPD model, from phase I PK/receptor saturation data; not in vitro
From the text: A PKPD model was built in Phoenix 64 WinNonLin version 8.1.0.3530, to predict avdoralimab serum concentrations in blood post s.c. administration, as well as C5aR saturation. Pharmacokinetics of therapeutic mAbs are usually modelled using a two-compartment model (Deng et al. 2011 MAbs 3(1): 61-66). Based on the PK results described in Example 1, avdoralimab is expected to display PK properties similar to other therapeutic antibodies in humans, except for compound-specific target-mediated drug disposition (TMDD). This TMDD effect can be modelled by an additional non-linear elimination added to the model (Wang et al. 2016 Biopharm. Drug Dispos. 37: 51-65). […] Absorption rate (Ka) and bioavailability (Ba) for s.c. administration were estimated based on PK results for Example 1. EC₅₀ in the PD part of PKPD model is derived from PK/RSA data observed in phase I clinical trial, and is similar to EC₅₀ binding to human neutrophils in vitro=0.34 nM=51 ng/mL in FACS titration assays.

[3] = molecular target: T1, Human C5aR (C5aR1); assay: cell-based or functional assay

EC50 [1]: 0.34 nM | EC50 [2]: 0.05 µg/mL | EC50 for inhibition of C5a-induced CD11b expression on neutrophils in human whole blood (flow cytometry, MedFI, normalized) [3]: 0.34 µg/mL
B1: Avdoralimab (antibody, human IgG1, kappa, V domains shown)
VH: EVQLVESGGGLVQPGGSLRLSCAASGFTFSSYVMHWVRQATGKGLEWVSAIDTGGGTYYADSVKGRFTISRENAKNSLYLQMNSLRAGDTAVYYCARDYYYYASGSYYKAFDIWGQGTMVTVSS
VL: EIVLTQSPGTLSLSPGERATLSCRASQSVSSRYLAWYQQKPGQAPRLLIYGASSRATGIPDRFSGSGSGTDFTLTISRLEPEDFAVYYCQQYGSPLTFGQGTKLEIKR
notes: also called IPH5401
